Measured values from the supplement of paper PMC10126150.
± gives the standard deviation of the averaged measurements.

Tested on: ATP
Test: switch fluorescence ratio, 500 uM ATP over buffer (Cy3 cluster intensity, sum of 5 cycles each) (fold (ratio)); higher = stronger signal-on switching upon ATP binding; sequences stand for … in TCGTCGGCAGCGTCAGATGTGTATAAGAGACAGTTTTTTTTTTTTTTTTTTTTTTTTT…TC
Settings: aptamer strand: ATP DNA aptamer (quencher-CACCTGGGGGAGTATTGCGGAGGAAGG + anchor), 100 nM annealed; ATP concentration: 500 uM
Summary of the method: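 Five buffer/ATP imaging cycles were run on Cy3-labelled switching-strand clusters on a modified Illumina MiSeq flow-cell, with NaOH stripping and re-annealing between cycles. In each cycle, clusters annealed to 100 nM quencher-labelled ATP aptamer were imaged in selection buffer, then after 15 min with 500 uM ATP at 22 °C. Per cluster, the fluorescence ratio is summed target-cycle over summed buffer-cycle Cy3 intensity, averaged per switch-domain sequence. Only clusters within 100-1000 RFU were kept.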
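Also: ATP exposure 15 min at 22 °C before imaging.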

Sequence | switch fluorescence ratio
CCTTTTTTTT | 1.01 ± 0.011
ATATGGTCAT | 0.9719 ± 0.0021
TTTAAGCTAC | 4.03 ± 0.57
GGGGTAAGTT | 0.989 ± 0.035
AGAGGGTTAT | 0.985 ± 0.038
TTTTGAGTGT | 0.995 ± 0.051
TGGGTTTGTA | 0.984 ± 0.019
ATGATTGGCC | 0.9882 ± 0.0086
ATAAATTGCG | 0.9931 ± 0.0086
AAGTTCACCA | 1.02 ± 0.018
GGCCTGGTGT | 1.29 ± 0.21
ATAGGATCAC | 1.02 ± 0.028
GCTGGACTTG | 0.998 ± 0.053
CTAGGTTTGA | 0.987 ± 0.019
GAATGTATGG | 1.04 ± 0.049
GAATTAGTGT | 0.984 ± 0.019
GGGCAGCGCA | 0.99057 ± 0.00048
GGGAGAGAAT | 1.005 ± 0.0058
TCAACGAGTA | 1.029 ± 0.0061
TTGTATAGTG | 0.933 ± 0.033
GTTTCGTTGT | 0.9798 ± 0.0019
AGAAGTTGGG | 0.993 ± 0.02
TGGGGATAAT | 1.01 ± 0.028

Sequence | switch fluorescence ratio
GAAATCGCCA | 1.022 ± 0.007
ATAGGGGTGG | 1.03 ± 0.018
AGGGGGGCAA | 1.03 ± 0.13
CATTAGAATC | 0.997 ± 0.028
AATTTTTTAA | 0.985 ± 0.019
AAGAAGCAGG | 1.06 ± 0.037
TTGTATCACG | 1.03 ± 0.059
TTTTAAGGAG | 1 ± 0.047
CAGTAGAAAG | 1.01 ± 0.0081
CTGCGGATGG | 1.058 ± 0.0066
GGCTTTTACG | 1.03 ± 0.042
TTTGTTACCG | 0.995 ± 0.012
GGGAGGGGTT | 1.01 ± 0.04
TATTATAATA | 0.98 ± 0.035
AGACTCTTGA | 1 ± 0.0083
AACTAGGGTG | 1.12 ± 0.013
AAGGGGATTA | 0.99 ± 0.033
TTGGTTTGTA | 1 ± 0.065
CGTTTGTTGC | 0.974 ± 0.034
ATACTGGAAA | 1.011 ± 0.01
TGGTTCCCAG | 1.04 ± 0.031
TTTGTTTGAT | 0.999 ± 0.034
TTTCGGTGTT | 0.981 ± 0.041

Sequence | switch fluorescence ratio
TAGTTATGTT | 0.96389 ± 0.00072
CTGATGCGCG | 1 ± 0.016
AATGCGCCGT | 1.01 ± 0.022
AGGTTAGTTT | 0.985 ± 0.018
ATATGGATGG | 0.986 ± 0.025
GACGGGGAAG | 1.08 ± 0.069
TGGTTCTTTT | 1.02 ± 0.056
AGTATCACAG | 0.9621 ± 0.0047
TCAAATTGCC | 0.982 ± 0.016
TTTTCCT | 1.04 ± 0.02
TTTGGGTGTC | 0.979 ± 0.014
TATATATAGA | 1 ± 0.041
TGAGTTCGAA | 1 ± 0.028
AGTGATGTGT | 1 ± 0.017
GATTTTTGAG | 0.99 ± 0.017
AAAGACATCT | 1.02 ± 0.095
ACAGGGAGTA | 0.9864 ± 0.003
TTTTCTTCTT | 1.02 ± 0.068
AGTCGGACTT | 0.993 ± 0.01
TTTTATACGT | 1.01 ± 0.016
TTAAATGGTT | 0.9783 ± 0.0076
TCGTACATGA | 1.013 ± 0.00015
GCAGAGGAAC | 1.03 ± 0.012

Sequence | switch fluorescence ratio
TATTAGTAAG | 0.985 ± 0.034
GTATCCCGTG | 0.977 ± 0.018
CGTTATACAG | 1.01 ± 0.026
TTATTATATG | 0.971 ± 0.022
GGGGGTTGAA | 1 ± 0.029
CTAATTTGCC | 1.02 ± 0.084
CGGCTGGCGA | 1.01 ± 0.059
AGTTAGAAAT | 1.02 ± 0.03
CATGCTGGGT | 1.0358 ± 0.001
AAAGGGGGT | 1.01 ± 0.026
AGCTTTTGAA | 1.006 ± 0.0026
ATGGGGTTCT | 0.992 ± 0.022
AGTAACATAT | 0.993 ± 0.012
TATTATATTA | 1.02 ± 0.019
ATGGACTCAA | 1.051 ± 0.0073
TTTCAGGTGG | 1.02 ± 0.015
GCATGGGGAC | 1.05 ± 0.081
GCTCCCTTTC | 1.84 ± 0.08
GGGGTATTTG | 0.99 ± 0.012
AGGGCTTAGT | 0.995 ± 0.022
CTTCACACGT | 1.016 ± 0.01
GATGTGGTAA | 1.01 ± 0.012
ATGCAGGCGG | 0.9811 ± 0.001

Sequence | switch fluorescence ratio
CGTGGGGGTC | 1.01 ± 0.013
GCCTAAATGC | 1.44 ± 0.28
TGAGGTTTTT | 1.28 ± 0.59
CTTGTGACAC | 1.02 ± 0.033
CGTTGTTACA | 1.04 ± 0.018
AGATTGGGGA | 1.01 ± 0.013
ATTGACTCAG | 1.01 ± 0.012
GGGGGAGATT | 0.977 ± 0.02
CCAGCCGGGG | 1.06 ± 0.075
AACGACCCCC | 1.74 ± 0.31
GGTGTTAATT | 0.9888 ± 0.0093
TTTTTACTAG | 1.007 ± 0.0023
TGAACGGCTT | 1.04 ± 0.011
TAAAGCTTTT | 1.09 ± 0.16
CAAATAAAGG | 1.01 ± 0.025
TCCTTTTTTA | 1.01 ± 0.015
TCTTTAATAA | 1 ± 0.039
ATTGAATGTA | 0.98 ± 0.016
GCGAAGGTCA | 1.01 ± 0.012
GGGATAAGAA | 0.992 ± 0.02
CTTAGGGTTG | 0.999 ± 0.013
TAGATATGTA | 1.02 ± 0.043
TCATCCGGAT | 1.25 ± 0.049

Sequence | switch fluorescence ratio
TACAGTTGCG | 1.02 ± 0.045
GTGTGGGGGC | 1.008 ± 0.0072
TGTTTTAAGT | 0.999 ± 0.036
TTGTGGGGTA | 1 ± 0.023
ATCGGAGCGG | 1.02 ± 0.031
AATTACGTGT | 1.0006 ± 0.00059
AGTTAGTTCG | 0.969 ± 0.043
TTTCCCGCTC | 1.93 ± 0.33
TTCAGGTTAG | 1.01 ± 0.027
GATTGGGTTG | 0.981 ± 0.045
CAATGTTGAG | 1 ± 0.032
GGTTTATATT | 1.01 ± 0.05
ACGAAATGAC | 1.68 ± 0.037
TTTTATCCGT | 1.06 ± 0.066
ACGTAGGGGG | 0.988 ± 0.032
GTTATAGGAG | 0.99 ± 0.019
GGGCCCTTAC | 1.11 ± 0.06
GGTCGGGGCA | 1.02 ± 0.025
ATTATGGTCA | 0.994 ± 0.023
GGTGTAATAG | 1.04 ± 0.036
GCTTGTAGTT | 0.9865 ± 0.0072
TTGCCCCGGC | 1.04 ± 0.016
GTCGTTTGCG | 1.012 ± 0.0048

Sequence | switch fluorescence ratio
ATAGAAAAAT | 1.003 ± 0.0098
GGTCCTGCGG | 1.01 ± 0.087
CAACCTGCAG | 1.06 ± 0.012
GATGGCGGAG | 1.03 ± 0.042
TAAGCGGGGG | 0.999 ± 0.017
ATCAAAGGTT | 1.03 ± 0.051
CTTGGAGGA | 1.024 ± 0.0093
AAGGAAATAG | 0.969 ± 0.0021
CGGTAGAGGG | 0.982 ± 0.037
CCAGTGTTAG | 1.03 ± 0.013
CGATTTTGA | 0.969 ± 0.043
TTATGAAATT | 1.01 ± 0.04
CTGGGTAGGG | 1.008 ± 0.01
TGCATTTGGG | 0.9893 ± 0.0031
TGGCCAGCTC | 0.975 ± 0.016
TTGGGGATTG | 0.989 ± 0.021
CGGCTGGCTG | 1.04 ± 0.011
AATCGGGTCA | 0.985 ± 0.021
TTAGAGACGC | 1.06 ± 0.021
